Laboratory results as given in the Human Domainome abundance scans (Beltran et al. 2025).
± gives the uncertainty stated by the source.

B1: SH3 and PX domain-containing protein 2B, residues 155 to 209; numbered along this chain, A1X283 (parent)
chain: EQYVVVANYQKQESSEISLSVGQVVDIIEKNESGWWFVSTAEEQGWVPATCLEGQ

Variants of: B1
Assay: abundance fitness (aPCA) (normalised: wild type 0, dead -1); higher = more abundant; growth selection in yeast, the domain comes from the species named
Settings: Homo sapiens

Abundance fitness: each site, then its substitutions
V24: A -0.008 ± 0.072 | W -0.075 ± 0.099 | Q -0.215 ± 0.11 | D -0.277 ± 0.097 | E 0.027 ± 0.087 | M -0.137 ± 0.1 | T -0.109 ± 0.089 | S -0.071 ± 0.077 | K 0.069 ± 0.1 | R -0.135 ± 0.071 | C -0.035 ± 0.13 | H -0.284 ± 0.17 | G -0.157 ± 0.074 | L -0.128 ± 0.077 | N 0.001 ± 0.12 | Y -0.263 ± 0.17 | F -0.239 ± 0.13 | P -0.135 ± 0.077 | I -0.026 ± 0.19
S20: A -0.13 ± 0.098 | W -0.165 ± 0.12 | F -0.085 ± 0.1 | Q -0.126 ± 0.17 | H -0.01 ± 0.13 | K -0.075 ± 0.11 | E 0.09 ± 0.21 | Y -0.143 ± 0.11 | C -0.209 ± 0.11 | T -0.055 ± 0.11 | G -0.239 ± 0.079 | D -0.317 ± 0.16 | P -0.536 ± 0.13 | V -0.077 ± 0.079 | R -0.082 ± 0.074 | L 0.015 ± 0.077
L19: A -0.482 ± 0.1 | E -0.768 ± 0.15 | Q -0.865 ± 0.16 | M -0.545 ± 0.15 | G -0.838 ± 0.093 | D -0.894 ± 0.28 | K -0.957 ± 0.14 | C -0.035 ± 0.13 | F -0.441 ± 0.18 | P -0.831 ± 0.11 | T -0.604 ± 0.089 | I -0.149 ± 0.17 | Y -0.665 ± 0.45 | W -0.899 ± 0.11 | N -0.966 ± 0.16
E16: V -0.92 ± 0.093 | Y -0.853 ± 0.3 | W -0.55 ± 0.12 | T -0.178 ± 0.1
W35: G -0.398 ± 0.074 | Q 0.04 ± 0.14 | C -0.062 ± 0.089 | N -0.193 ± 0.18 | R 0.045 ± 0.073 | T -0.191 ± 0.09 | Y -0.22 ± 0.15 | L -0.073 ± 0.069 | H 0.013 ± 0.12 | F -0.005 ± 0.23 | E -0.173 ± 0.1 | S -0.04 ± 0.066 | I -0.195 ± 0.13 | M 0.027 ± 0.085 | P -0.621 ± 0.1 | D -0.182 ± 0.14 | V -0.118 ± 0.07 | A -0.172 ± 0.072
S33: E -0.002 ± 0.12 | L -0.242 ± 0.094 | P -0.5 ± 0.13 | Q 0.074 ± 0.19 | D 0.095 ± 0.1 | N -0.09 ± 0.14 | I -0.393 ± 0.13 | F -0.229 ± 0.13 | C -0.266 ± 0.14 | H -0.046 ± 0.13 | K 0.058 ± 0.11 | G -0.088 ± 0.072 | Y -0.074 ± 0.11 | W -0.387 ± 0.12 | M -0.272 ± 0.14 | T -0.086 ± 0.098 | V -0.212 ± 0.077
E29: K 0.022 ± 0.11 | S -0.114 ± 0.07 | R 0.084 ± 0.079 | D -0.104 ± 0.2 | L -0.123 ± 0.088 | M -0.417 ± 0.12 | P -0.974 ± 0.26 | T -0.037 ± 0.093 | Q 0.05 ± 0.11 | G -0.19 ± 0.077 | C -0.205 ± 0.082 | H 0.056 ± 0.28 | N 0.021 ± 0.16 | F -0.691 ± 0.36 | V -0.258 ± 0.073 | I 0.133 ± 0.17 | Y -0.502 ± 0.18 | A -0.056 ± 0.08 | W -0.097 ± 0.088
E32: A 0.027 ± 0.075 | M -0.188 ± 0.11 | D -0.047 ± 0.09 | N -0.078 ± 0.15 | R -0.108 ± 0.064 | T -0.122 ± 0.16 | Q 0.001 ± 0.12 | W -0.353 ± 0.1 | V 0.038 ± 0.082 | P -0.084 ± 0.083 | C -0.152 ± 0.11 | H -0.139 ± 0.13 | K -0.326 ± 0.13 | S -0.07 ± 0.071 | Y -0.345 ± 0.15 | G 0.001 ± 0.061 | I -0.066 ± 0.19
K30: D -0.767 ± 0.18 | F -0.357 ± 0.11 | L -0.548 ± 0.16 | T -0.008 ± 0.15 | E -0.17 ± 0.14 | I -0.276 ± 0.14 | P -0.495 ± 0.15 | W -0.58 ± 0.16 | Q -0.027 ± 0.15 | G -0.398 ± 0.08 | R -0.049 ± 0.077 | Y 0.029 ± 0.28 | V -0.273 ± 0.076
G34: I -0.579 ± 0.15 | L -0.423 ± 0.078 | D -0.125 ± 0.091 | E -0.147 ± 0.081 | Y -0.492 ± 0.16 | K -0.169 ± 0.14 | P -0.249 ± 0.1 | R -0.306 ± 0.07 | T -0.393 ± 0.092 | M -0.216 ± 0.1 | N -0.538 ± 0.22 | F -0.598 ± 0.16 | H -0.327 ± 0.14 | V -0.676 ± 0.11 | A -0.189 ± 0.075 | W -0.708 ± 0.13 | Q -0.458 ± 0.2 | S -0.208 ± 0.083
I27: D -1.05 ± 0.22 | Q -0.609 ± 0.19 | N -0.899 ± 0.19 | M -0.185 ± 0.11 | R -0.277 ± 0.058 | T -0.183 ± 0.092 | G -0.351 ± 0.073 | L -0.099 ± 0.067 | A 0.037 ± 0.13 | W -0.477 ± 0.1 | H -0.908 ± 0.23
